Results: the RNAGym collection of RNA variant scans (doi:10.1073/pnas.2313332121)
Fewer inactive variants are shown than the library holds.

B1: TPR 5TU (parent)
chain: GGAUCUUCUCGAUCUAACAAAAAAGACAAAUCUGCCACAAAGCUUGAGAGCAUCUUCGGAUGCAGAGGCGGCAGCCUUCGGUGGCGCGAUAGCGCCAACGUUCUCAACUAUGACACGCAAAACGCGUGCUCCGUUGAAUGGAGUUUAUCAUG

Variants of: B1
Test: polymerase ribozyme fitness, log enrichment relative to wild type (log ratio); higher = more active; in vitro selection for triplet polymerase activity
Outline: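 Each subunit of a heterodimeric triplet polymerase ribozyme was mutagenized into a library by PCR, transcribed, and subjected to one round of in vitro selection, run in triplicate. Libraries were annealed with a biotinylated primer, the partner subunit and triplets, incubated frozen at −7 °C, and extended constructs were gel-excised, captured on streptavidin beads and recovered by RT-PCR. Input and output libraries were sequenced on Illumina, keeping genotypes with ≥10 input reads and ≥1 read per output. Fitness is log base 2 of genotype enrichment divided by wild-type enrichment, from inverse-variance-weighted replicate averages.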

Row | Variant | polymerase ribozyme fitness (log ratio)
1 | A19G A98U A115U A120U | -2.62
2 | A19G C32A G46C C54U G59C A106U G128C | ≤ -4.2
3 | A20C C76G | ≤ -4.2
4 | A19U C85G | -2.18
5 | A19U C85A | -1.33
6 | A20C U90G C99U G136C | ≤ -4.2
7 | A20C G81C C87U | -1.28
8 | A19G A28G A60G G86C A107G C118U G141U | ≤ -4.2
9 | A20C C96U | -1.24
10 | A19G A47G G48A | -3.23
11 | A20G A22U C87U | -2.33
12 | A19U A28C A40C A41C U44G C85A A113C | ≤ -4.2
13 | A20C C54U C95U G140U | -3.23
14 | A19U U61A G86U A107G A115U G152U | ≤ -4.2
15 | A19G G50U A73G C85U | -0.781
16 | A19U G50U G58C C75U C118G A120G G141A U146A | ≤ -4.2
17 | A19U U53G C93G | ≤ -4.2
18 | A20C A30G G50U C95G A147G | ≤ -4.2
19 | A20C A60G | -0.605
20 | A20C U56A A107U | -2.71
21 | A19G G84C A115U A121G | -3.97
22 | A20C A29C C87G A122G G140U | ≤ -4.2
23 | A20C U101G C149U | -1.64
24 | A19U U31A G58C C63U G70C C95U C131G G152U | ≤ -4.2

Row | Variant | polymerase ribozyme fitness (log ratio)
25 | A19G A40C C93U | -0.92
26 | A19U C75U G81C C99G A119G G140U | ≤ -4.2
27 | A19G C54G C96G C149U | -3.72
28 | A19U C27U C36A G42C G86A G100C C118G | ≤ -4.2
29 | A19U U55G C85G C96U C116A U139A | ≤ -4.2
30 | A19U A22C U55G A64C A73G A91C U144A | ≤ -4.2
31 | A19U C69G C72U G84A | -3.03
32 | A19U A22G A39C C79G | ≤ -4.2
33 | A19C G117C | 0.678
34 | A19U G141A | 0.304
35 | A19G G50A G67A A91U C93A | ≤ -4.2
36 | A19U A49C C54A G62A A119G C125U U144A | ≤ -4.2
37 | A19G C57G G84U | -2.3
38 | A19U A24C C35U C57U A66C G86U | -4.08
39 | A19G G50A | -2.14
40 | A19U G58A G94U C116A A119C | -0.758
41 | A20C A49G G81A C87G U104G A138C | ≤ -4.2
42 | A19U G84C | -2.08
43 | A19U C87U A121C A147U | 0.743
44 | A19G G94A | -1.06
45 | A19U C87G | -4.17
46 | A19U A41C G58A C85G | -2.71
47 | A19U G94A | -1
48 | A19G A28U A40C A60C G71U C75A G86U | ≤ -4.2

Row | Variant | polymerase ribozyme fitness (log ratio)
49 | A19G C87G | ≤ -4.2
50 | A19U A52U A97G | -2.59
51 | A19U G58A C105G | -2.43
52 | A19G A40U C57A U61A G100U G136U G141C | ≤ -4.2
53 | A19U C32A G84A G128U C131U A137G | -3.73
54 | A19G C57U G67U G94A C105A | ≤ -4.2
55 | A20G A21C G84U C95G G117U | -0.439
56 | A20C A47C A60G C85A G140U | ≤ -4.2
57 | A20C U31G A49C A52C U53C | ≤ -4.2
58 | A20C A22U G58A U77C C96G | ≤ -4.2
59 | A20C U31G U53A U55G A115C | -2.82
60 | A20C A28U G48C G70A C87G A120G U135C | ≤ -4.2
61 | A20C A21G A23C A28U C38A | ≤ -4.2
62 | A19U C69G C96G U104G | -1.98
63 | A19U C96G A122U | -0.445
64 | A20C C43U U44A U55G C79U G141A | ≤ -4.2
65 | A19U A20C A26U C85U C118A C125U U134G G143A | ≤ -4.2
66 | A19U A40U C54A A60G C96U | -2.61
67 | A19U A106G G143C | -2.4
68 | A19G C32A A40C U61A C93G A110G | ≤ -4.2
69 | A20C G48C G62A | -2.35
70 | A19U A47C U55G C87U G92U U101C | -2.81
71 | A19U G25U C35A G65U A91U A120G G140A A142U | -4.19
72 | A20C A73G C87G C114U G141A | ≤ -4.2

Row | Variant | polymerase ribozyme fitness (log ratio)
73 | A19U U31C G46A C96U C131U U139G | -2.16
74 | A19U A20C G59A A89U C95U G126C | -0.274
75 | A19U C76U C131U | 0.231
76 | A20C G48U G83U | -2.07
77 | A20C C85U A115U | -1.06
78 | A20C C63U G88C C95U | ≤ -4.2
79 | A20C C76A A119U | -1
80 | A19U A23C A29G G83C A97U C103G U139C | ≤ -4.2
81 | A19G U109G U139C U144C U148C | -4.14
82 | A20C U56A C93A C116A | -1.28
83 | A19U C85G A121G | -1.62
84 | A19G A30G G42C G50A C85U U109A A120G | ≤ -4.2
85 | A19G C38U G50A G86A C105A C116A A121U G141C | ≤ -4.2
86 | A19G U53G A120U | -2.57
87 | A20C C57G C105G C149A | ≤ -4.2
88 | A19G U55A | -0.576
89 | A19U A40C A91U C95G | ≤ -4.2
90 | A19U A49G C57A A60U C116U | -2.27
91 | A20C A24G | -4.02
92 | A20C C63G G152A | -2.4
93 | A19U G46U A89C | -2.83
94 | A20C U130G U144C | -4.14
95 | A19G A23G G67C C87U | ≤ -4.2
96 | A19G G83A A91C G94C C96G U134G | ≤ -4.2

Row | Variant | polymerase ribozyme fitness (log ratio)
97 | A20G A21C C93A A97G | -3.83
98 | A20G A21C U31C C103A U144G | -1.73
99 | A20C C79A G94C | ≤ -4.2
100 | A19U C57G | -1.75
101 | A20C C85A A97U | -3.02
102 | A19G U90G | ≤ -4.2
103 | A19U C63U C96U C105G C116A | -2.98
104 | A19U C79A | ≤ -4.2
105 | A19U C51U G58C C85U A91U C114U C118U | ≤ -4.2
106 | A19U C69U G92C G126C | -1.04
107 | A19U U33A G84A G92C G94C | ≤ -4.2
108 | A20C U56G G92U | -0.962
109 | A19C U61A C103A | ≤ -4.2
110 | A20C C99G | -1.06
111 | A19G U109C G141A | -2.85
112 | A19U G48C C75U U77C C93G A122U A150C | ≤ -4.2
113 | A20C C63U A64C | ≤ -4.2
114 | A19G A41U A66C C93U C99U A115U G140A G141C | ≤ -4.2
115 | A19G A26U C85A A97C A119U C123U | ≤ -4.2
116 | A19U A73G G86U | -1.03
117 | A19U A49C C69U U77G C79A G84A C99A A113C C114G A142C | ≤ -4.2
118 | A19U A22C A40C C43G A66C C95A G141U G152A | -3.6
119 | A19U C131A | -1.75
120 | A19U C43G C54G A91G | ≤ -4.2

Row | Variant | polymerase ribozyme fitness (log ratio)
121 | A19G C87G G92A U134A | ≤ -4.2
122 | A20C G25C G34U C54A A91G A119U A122U G124U C125G | ≤ -4.2
123 | A19U U45G G83C U127A | ≤ -4.2
124 | A19G A37U U101G | -2.14
125 | A20C A23U C27A G58U C72A A89G C99A A107C | ≤ -4.2
126 | A19U A20U C85U A142G | -2.89
127 | A19U A20U C35U G59C U77C C118U C123U G141A U151G | ≤ -4.2
128 | A19G G50A C69U G84U A98U A122G | ≤ -4.2
129 | A19U U33C C69U G126U | -0.898
130 | A19U C57G C95U C103G U104G | ≤ -4.2
131 | A19U C123U | -0.609
132 | A19U U45A G83C | -3.67
133 | A19U U31C C51U | 0.159
134 | A20C U61G G112C | ≤ -4.2
135 | A19U A40G U101G | -3.45
136 | A19G U33C A49C C54U G81A C87U | ≤ -4.2
137 | A20C A73C G81A U90C G92C U104G | ≤ -4.2
138 | A19U G48A C116G U127G | ≤ -4.2
139 | A19G G83A C85A C96U A97C A119G | ≤ -4.2
140 | A19G C35U U53G C54A G71A U145C | -2.47
141 | A20C U144G | 0.273
142 | A19U A26C A30U C35U A41U G84A U135A | ≤ -4.2
143 | A19G U44C U56A C57U C85U C95G | ≤ -4.2
144 | A20C C32A A52G A91U G94A C99U A147U G152U | -3.97

Row | Variant | polymerase ribozyme fitness (log ratio)
145 | A19G U109G C118G U144A | -3.72
146 | A19U C105G | -1.81
147 | A19C U53A G92A | -3.8
148 | A20C C87A C116U | ≤ -4.2
149 | A19U C54U U134C A150C | -2.5
150 | A19U A21C | -0.908
151 | A20C U53A U55A | -2.52
152 | A20C G25U C51A U77G G94C A115U G140C | ≤ -4.2
153 | A19G A97U | -0.98
154 | A20C A47C | -0.462
155 | A19U C35U | -0.444
156 | A19U C87U G141U U146C | 0.666
157 | A20C C85U G86U C93A A119U A121G | -1.77
158 | A20C C36A | -4.06
159 | A19U A20G A66G G80A C87A A107G A110C | ≤ -4.2
160 | A20C U31G A40U | -0.279
161 | A19U A30U G62C G65C C96A | ≤ -4.2
162 | A20C C85U A89G A106G | -2.07
163 | A19U G59A G83U C95A C132U G136U G141A | ≤ -4.2
164 | A20C U104G A107C U145G | ≤ -4.2
165 | A20C A49U A60C | -3.14
166 | A19G U33C A41C A91U C93A A97C | ≤ -4.2
167 | A20C G50U G81C C103U A120U | -2
